Series [1] has as its target KaiC3 wild-type protein fused to an N-terminal Strep-tag (Synechocystis sp. strain PCC 6803). Nature of the series: SEC; Strep-KaiC3 on Sephacryl S300 HR HiPrep 16/60; 20 or 50 mM Tris-HCl (pH 8.0), 150 mM NaCl, 2 mM DTT, 1 mM ATP, 5 mM MgCl2.
Series [2] concerns the molecule itself. Briefly: SEC; KaiB1 and KaiB3 on Sephacryl S200 HR HiPrep 16/60 or Superdex 200 Increase 10/30 GL; 20 or 50 mM Tris-HCl (pH 8.0), 150 mM NaCl, 2 mM DTT. Background: Size exclusion chromatography separates by hydrodynamic size, large species first.

In general, stoichiometry N refers to the number of molecules, sites or subunits per partner or assembly. In turn, “KaiC3 wild-type protein fused to an N-terminal Strep-tag (enzyme)” gave a stoichiometry N in series [1] of 6.

B1: KaiB3, recombinant, GST tag cleaved off (natural protein, Synechocystis sp. strain PCC 6803, UniProt Q55819 1-102, looked up)
chain: MDMNRIVLRLYITGNSVRSQQAIANIYRICQEDLGDQYNVEIIDVLEQPQRAEEEKIMVTPTLIKQLPPPLQRIIGDMSNTEKVLLGLDIVPEGLQVRLPED
notes: Eluted as a monomer and as a tetramer; the two fractions were tested separately in the ATPase assay; also called KaiB3 monomer; KaiB3 tetramer
Turning to B1, in series [2], the “stoichiometry N” value was found to be 4.

B2: KaiB1, recombinant, GST tag cleaved off (natural protein, Synechocystis sp. strain PCC 6803, UniProt P74645 1-105, looked up)
chain: MSPFKKTYVLKLYVAGNTPNSVRALKMLKNILEQEFQGVYALKVIDVLKNPQLAEEDKILATPTLAKILPPPVRKIIGDLSDREKVLIGLDLLYDEIREREAEDQ
notes: Eluted only as a tetramer from size exclusion chromatography; also called KaiB1 tetramer
Regarding B2, in series [2], the “stoichiometry N” value is 4.

The values are drawn from article PMC6989803, “Synechocystis KaiC3 Displays Temperature- and KaiB-Dependent ATPase Activity and Is Important for Growth in Darkness” (Journal of Bacteriology, 2019).
